The text below walks through data of article PMC5922973, “Topoisomerase VI senses and exploits both DNA crossings and bends to facilitate strand passage” (eLife, 2018).

Changes are numbered by the printed parent chain.

For data set [1], the target named is T1, topo VI H2TH-EEE R263E;K268E;K308E (Methanosarcina mazei) (UniProt Q8PUB7+Q8PUB8).
T1 sequence 1: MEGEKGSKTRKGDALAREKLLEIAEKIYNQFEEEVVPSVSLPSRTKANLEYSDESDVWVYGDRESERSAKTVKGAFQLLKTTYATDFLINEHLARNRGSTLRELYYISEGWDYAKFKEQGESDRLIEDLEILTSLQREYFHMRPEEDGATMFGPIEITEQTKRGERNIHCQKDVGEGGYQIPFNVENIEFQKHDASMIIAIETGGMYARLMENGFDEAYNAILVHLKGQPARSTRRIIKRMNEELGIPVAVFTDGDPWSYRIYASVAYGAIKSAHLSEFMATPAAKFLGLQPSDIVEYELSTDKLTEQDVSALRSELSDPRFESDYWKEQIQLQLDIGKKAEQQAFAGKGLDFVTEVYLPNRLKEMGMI
T1 sequence 2: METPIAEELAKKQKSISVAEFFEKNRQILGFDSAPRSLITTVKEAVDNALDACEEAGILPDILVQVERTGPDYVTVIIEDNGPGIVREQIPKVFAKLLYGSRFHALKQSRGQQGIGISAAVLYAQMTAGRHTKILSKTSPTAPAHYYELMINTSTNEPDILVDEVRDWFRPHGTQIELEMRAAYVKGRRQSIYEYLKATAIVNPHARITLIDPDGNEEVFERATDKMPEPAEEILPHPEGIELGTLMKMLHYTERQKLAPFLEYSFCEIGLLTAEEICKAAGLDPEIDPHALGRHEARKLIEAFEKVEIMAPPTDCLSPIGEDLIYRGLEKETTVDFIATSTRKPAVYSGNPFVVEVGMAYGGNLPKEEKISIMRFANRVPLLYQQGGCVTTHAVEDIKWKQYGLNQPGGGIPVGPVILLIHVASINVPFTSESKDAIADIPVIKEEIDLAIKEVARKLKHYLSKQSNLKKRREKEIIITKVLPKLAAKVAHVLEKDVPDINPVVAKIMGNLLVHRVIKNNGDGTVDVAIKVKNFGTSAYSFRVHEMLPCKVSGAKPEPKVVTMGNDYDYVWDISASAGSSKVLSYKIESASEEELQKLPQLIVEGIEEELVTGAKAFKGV
Kind of data set: competition (fluorescence anisotropy). Particulars: vs FAM 70 bp; FA: 20 nM probe, 50 mM K-glutamate, 20 mM HEPES-KOH pH 7.5, 10 mM MgCl2, 5% glycerol, 1 mM TCEP, 0.1 mg/mL BSA; incubated on ice, read at ambient temperature ….

Data set [2] addresses T2, topo VI KGRR-EEE K186E;R188E;R189E (Methanosarcina mazei) (UniProt Q8PUB7+Q8PUB8).
T2 sequence 1: T1 sequence 1
T2 sequence 2: T1 sequence 2 with K186E, R188E, R189E, E263R, E268K, E308K
Kind of data set: competition (fluorescence anisotropy). Conditions: vs FAM 70 bp; FA: 20 nM probe, 50 mM K-glutamate, 20 mM HEPES-KOH pH 7.5, 10 mM MgCl2, 5% glycerol, 1 mM TCEP, 0.1 mg/mL BSA; incubated on ice, read at ambient temperature …. On the technique in general: In fluorescence polarisation assays a small probe gives low polarisation when free and higher when bound to something large.

The target of data set [3] is T3, topo VI holoenzyme WT (Methanosarcina mazei) (UniProt Q8PUB7+Q8PUB8).
T3 sequence 1: T1 sequence 1
T3 sequence 2: T1 sequence 2 with E263R, E268K, E308K
The data set is described as follows: competition (fluorescence anisotropy). Particulars: vs FAM 70 bp; FA: 20 nM probe, 50 mM K-glutamate, 20 mM HEPES-KOH pH 7.5, 10 mM MgCl2, 5% glycerol, 1 mM TCEP, 0.1 mg/mL BSA; incubated on ice, read at ambient temperature ….

Data set [4] deals with T4, topo VI KGRR-AAA K186A;R188A;R189A (Methanosarcina mazei) (UniProt Q8PUB7+Q8PUB8).
T4 sequence 1: T1 sequence 1
T4 sequence 2: T1 sequence 2 with K186A, R188A, R189A, E263R, E268K, E308K
Kind of data set: competition (fluorescence anisotropy). Conditions: vs FAM 70 bp; FA: 20 nM probe, 50 mM K-glutamate, 20 mM HEPES-KOH pH 7.5, 10 mM MgCl2, 5% glycerol, 1 mM TCEP, 0.1 mg/mL BSA; incubated on ice, read at ambient temperature ….

Data set [5] has as its target T5, topo VI H2TH-AAA R263A;K268A;K308A (Methanosarcina mazei) (UniProt Q8PUB7+Q8PUB8).
T5 sequence 1: T1 sequence 1
T5 sequence 2: T1 sequence 2 with E263A, E268A, E308A
The data set is described as follows: competition (fluorescence anisotropy). Particulars: vs FAM 70 bp; FA: 20 nM probe, 50 mM K-glutamate, 20 mM HEPES-KOH pH 7.5, 10 mM MgCl2, 5% glycerol, 1 mM TCEP, 0.1 mg/mL BSA; incubated on ice, read at ambient temperature ….

The target of data set [6] is T3, topo VI holoenzyme WT (Methanosarcina mazei). Kind of data set: fluorescence anisotropy. Conditions: FA: 20 nM probe, 50 mM K-glutamate, 20 mM HEPES-KOH pH 7.5, 10 mM MgCl2, 5% glycerol, 1 mM TCEP, 0.1 mg/mL BSA; incubated on ice, read at ambient temperature ….
Data set [7] deals with the molecule itself. The data set is described as follows: FRET or BRET; bulk FRET between Alexa555 and Alexa647 on Cys155 of the two Top6B in the holoenzyme; 200 nM topo VI with 100 uM bp sheared salmon-sperm (short linear) DNA, before and over time after 1 mM AMPPNP; 50 mM potassium glutamate, 20 mM HEPES-KOH pH 7.5, 10 mM MgCl2. On the technique in general: In BRET a luciferase serves as donor, and the signal depends on an acceptor being close.

Data set [8] deals with the molecule itself. Kind of data set: FRET or BRET; bulk FRET between Alexa555 and Alexa647 on Cys155 of the two Top6B in the holoenzyme; 200 nM topo VI with 100 uM bp supercoiled plasmid DNA, before and over time after 1 mM AMPPNP; 50 mM potassium glutamate, 20 mM HEPES-KOH pH 7.5, 10 mM MgCl2.

Usually Ki stands for a measure of affinity in units of concentration, obtained from inhibition or displacement. pSG483 negatively supercoiled plasmid: the Ki in data set [1] amounted to 10 nM; in data set [2], 14.7 nM; in data set [3], 0.6 nM; in data set [4], 7.2 nM; in data set [5] it was 1.3 nM.

For the molecule 80 bp duplex, in data set [6], the binding signal (fold Kd of 60 bp duplex) came to 2.

B1: M. mazei Top6B cyslite-155C, Alexa555/Alexa647-labeled, in the topo VI holoenzyme (enzyme, Methanosarcina mazei)
chain: T1 sequence 2 with T155C, E263R, C267S, E268K, C278A, E308K, C316A, C550A
modifications: Alexa Fluor 555 C2 maleimide or Alexa Fluor 647 C2 maleimide on Cys155
notes: Top6B of Methanosarcina mazei topo VI, 'cys-lite' with Thr155 changed to cysteine; Stood in the assay as part of the A2B2 holoenzyme with Top6A; population is a mix of donor-acceptor (50%), acceptor-acceptor (25%) and donor-donor (25%) labeled enzymes; also called topo VI^cyslite-155C; TopoVI^cyslite-155C; not shown: His6, N-terminal, cleaved
In the case of B1, the binding result in data set [7] is “binds”.

B2: M. mazei Top6B KGRR^AAA cyslite-155C, Alexa555/Alexa647-labeled, in the topo VI holoenzyme (enzyme, Methanosarcina mazei)
chain: METPIAEELAKKQKSISVAEFFEKNRQILGFDSAPRSLITTVKEAVDNALDACEEAGILPDILVQVERTGPDYVTVIIEDNGPGIVREQIPKVFAKLLYGSRFHALKQSRGQQGIGISAAVLYAQMTAGRHTKILSKTSPTAPAHYYELMINTSCNEPDILVDEVRDWFRPHGTQIELEMRAAYVAGAAQSIYEYLKATAIVNPHARITLIDPDGNEEVFERATDKMPEPAEEILPHPEGIELGTLMKMLHYTERQKLAPFLRYSFSKIGLLTAEEIAKAAGLDPEIDPHALGRHEARKLIEAFEKVKIMAPPTDALSPIGEDLIYRGLEKETTVDFIATSTRKPAVYSGNPFVVEVGMAYGGNLPKEEKISIMRFANRVPLLYQQGGCVTTHAVEDIKWKQYGLNQPGGGIPVGPVILLIHVASINVPFTSESKDAIADIPVIKEEIDLAIKEVARKLKHYLSKQSNLKKRREKEIIITKVLPKLAAKVAHVLEKDVPDINPVVAKIMGNLLVHRVIKNNGDGTVDVAIKVKNFGTSAYSFRVHEMLPAKVSGAKPEPKVVTMGNDYDYVWDISASAGSSKVLSYKIESASEEELQKLPQLIVEGIEEELVTGAKAFKGV
modifications: Alexa Fluor 555 C2 maleimide or Alexa Fluor 647 C2 maleimide on Cys155
notes: Top6B of Methanosarcina mazei topo VI, cyslite-155C with the KGRR^AAA mutations; Stood in the assay as part of the A2B2 holoenzyme with Top6A; also called Top6AB-KGRR^AAA cyslite-155C; KGRR^AAA FRET assay construct; not shown: His6, N-terminal, cleaved
For B2, in data set [8], the binding result was “binds”.

B3: M. mazei Top6B H2TH^AAA cyslite-155C, Alexa555/Alexa647-labeled, in the topo VI holoenzyme (enzyme, Methanosarcina mazei)
chain: B2 chain with A186K, A188R, A189R, R263A, K268A, K308A
modifications: Alexa Fluor 555 C2 maleimide or Alexa Fluor 647 C2 maleimide on Cys155
notes: Top6B of Methanosarcina mazei topo VI, cyslite-155C with the H2TH^AAA mutations; Stood in the assay as part of the A2B2 holoenzyme with Top6A; also called Top6AB-H2TH^AAA cyslite-155C; not shown: His6, N-terminal, cleaved
As to B3, in data set [8], the binding result is given as “binds”.
